Source: patent US8343911B2, “Methods of inhibiting and treating bacterial biofilms by metal chelators” (University of Iowa Research Foundation, priority 2002, dated 2013)

How the values were obtained:
Format in all cases: cell-based
[1] = tested on: wild-type P. aeruginosa PAO1; assay: Biofilm formation in continuous culture flow cells (confocal microscopy); conditions: for effect on biofilm development / formation / effect on biofilm formation, iron-saturated protein: 20 μg/ml, flow cells; for effect on biofilm development / formation: Fe-unsaturated protein, up to day 7; for effect on biofilm formation, iron-saturated protein: Fe-saturated protein
Procedure: (§1) For studies of biofilm formation, wild-type P. aeruginosa PAO1 and the surface motility mutant were grown in flow cells similar to those described previously; the size of the flow channel was 5×35×1 mm. An overnight culture diluted to 10^7 cells per ml in fresh biofilm medium was used as the inoculum and flow was arrested for 45 min. Flow of biofilm medium with and without 20 μg/ml of Fe-unsaturated or Fe-saturated lactoferrin or conalbumin (Sigma Chemical Co.) was then initiated at a rate of 170 μl/min. Images were obtained using a Biorad (Hercules, Calif.) scanning confocal microscope.

[2] = tested on: P. aeruginosa strain PAO1; assay: Growth of free swimming P. aeruginosa in biofilm medium containing lactoferrin (plate counting)
Procedure: (§2) P. aeruginosa strain PAO1 containing the GFP plasmid pMRP9-1 was used for most studies. Where indicated, an isogenic surface motility mutant (a PA01 deletion mutant from J. Kato (Department of Fermentation Technology, Hiroshima University, Hiroshima, Japan.) containing pMRP9-1 was used. Biofilm medium consisted of 1% Trypticase Soy Broth (Difco, Detroit, Mich.). In the growth experiments, approximately 10^3 bacteria from an overnight culture were added to 5 ml of biofilm medium containing the indicated concentrations of lactoferrin (Sigma Chemical Co., St Louis, Mo.). Cultures were incubated in acid-washed tubes at 37° C. with shaking. Colony-forming units were determined by plate counting. […] P. aeruginosa with pMRP9-1 was also grown in lactoferrin-containing effluent medium from flow cells. After one day of bacterial growth, effluent was collected on ice, filter sterilized, and growth was assessed as above.

[3] = tested on: P. aeruginosa surface motility mutant (PA01 deletion mutant); assay: Biofilm formation of surface motility mutant in flow cells; conditions: in the presence of lactoferrin, FIG. 4e,f
Procedure: as §2

P. aeruginosa [4] = assay: Dividing times of attached bacteria in flow cells (time-lapse microscopy)
Procedure: as §1
(§3) Bacterial movement was assessed by using time-lapse images acquired at 1 min intervals. Motion of bacterial cells was traced visually by following individual cells. VOXblast software (VayTek, Inc, Fairfield, Iowa) was used to obtain the X-Y coordinates of bacterial cells.
(§4) Bacterial behaviors were classified as follows. Squatters remained within a 15 μm circle drawn around the point of parental cell division until the time of its cell division. Ramblers remained attached to the growth surface, but moved outside the circle. Flyers detached and were carried away by media flow. Dividing times of attached bacteria were measured by counting the number of frames between cell divisions; 60 bacterial divisions were observed and the dividing times were averaged.

P. aeruginosa [5] = assay: Bacterial movement and behaviors (squatters, ramblers, flyers) in flow cells; conditions: in the presence of lactoferrin; 40 parental cells, three generations; FIG. 3c,d
Procedure: as §3, §4

P. aeruginosa biofilms = assay: Antimicrobial susceptibility of biofilms grown in rotating disk reactor (viable cell counts); conditions: Fe-unsaturated conalbumin during 48 h biofilm growth
Procedure: P. aeruginosa biofilms for susceptibility tests were grown in a rotating disk reactor. Fe-unsaturated conalbumin (Sigma Chemical Co.) was added to standard biofilm medium at indicated concentrations for the duration of biofilm growth. Discs and attached bacteria were then washed 3 times in distilled water, and treated for 4 h in 1 ml of H2O2 (Fisher Scientific) or tobramycin (Eli Lilly, Indianapolis, Ind.) at indicated concentrations. The treated discs were washed 3 times, and bacteria were removed and dispersed in 2 ml sterile PBS by homogenization (Brinkman Homogenizer, model 10/35). Viable cell numbers were enumerated by plate counting.

B1: lactoferrin (protein, UniProt P02788 20-710, looked up)
Lactotransferrin: GRRRSVQWCAVSQPEATKCFQWQRNMRKVRGPPVSCIKRDSPIQCIQAIAENRADAVTLDGGFIYEAGLAPYKLRPVAAEVYGTERQPRTHYYAVAVVKKGGSFQLNELQGLKSCHTGLRRTAGWNVPIGTLRPFLNWTGPPEPIEAAVARFFSASCVPGADKGQFPNLCRLCAGTGENKCAFSSQEPYFSYSGAFKCLRDGAGDVAFIRESTVFEDLSDEAERDEYELLCPDNTRKPVDKFKDCHLARVPSHAVVARSVNGKEDAIWNLLRQAQEKFGKDKSPKFQLFGSPSGQKDLLFKDSAIGFSRVPPRIDSGLYLGSGYFTAIQNLRKSEEEVAARRARVVWCAVGEQELRKCNQWSGLSEGSVTCSSASTTEDCIALVLKGEADAMSLDGGYVYTAGKCGLVPVLAENYKSQQSSDPDPNCVDRPVEGYLAVAVVRRSDTSLTWNSVKGKKSCHTAVDRTAGWNIPMGLLFNQTGSCKFDEYFSQSCAPGSDPRSNLCALCIGDEQGENKCVPNSNERYYGYTGAFRCLAENAGDVAFVKDVTVLQNTDGNNNEAWAKDLKLADFALLCLDGKRKPVTEARSCHLAMAPNHAVVSRMDKVERLKQVLLHQQAKFGRNGSDCPDKFCLFQSETKNLLFNDNTECLARLHGKTTYEKYLGPQYVAGITNLKKCSTSPLLEACEFLRK
notes: known iron chelating protein (Sigma Chemical Co.), proteinaceous metal chelator
[1]
  effect on biofilm development / formation: differentiated biofilm formation was completely blocked
[1]; listed as Lactoferrin
  effect on biofilm development / formation: disrupted this pattern of development
[1]; 5 day-old biofilms exposed to lactoferrin-containing medium for 48 h
  effect on structure of mature biofilms: failed to alter their structure
[2]; 20 μg/ml lactoferrin (sub-inhibitory), FIG. 1
  effect on growth rate of free swimming P. aeruginosa PAO1: did not affect the growth rate
[2]; biofilm medium, 37° C. with shaking, varied for different lots
  concentration of lactoferrin that inhibited bacterial growth: ≥ 30 µg/mL
[2]; in 22 h, spent lactoferrin-treated medium
  number of doublings in lactoferrin-containing effluent (conditioned) medium from flow cells: 6 times
[3]
  biofilm formation by surface motility mutant: formed microcolonies and irregularly shaped biofilms in both the absence and presence of lactoferrin
P. aeruginosa [4]; 20 μg/ml lactoferrin vs. without
  increase of dividing time of attached cells: 27%
P. aeruginosa [4]; concentration of lactoferrin that prevents biofilm formation
  effect on growth of attached cells: only slightly reduced the growth of attached cells
P. aeruginosa [4]; with 20 μg/ml lactoferrin, average of 60 divisions
  dividing time of attached cells: 127 min
P. aeruginosa [5]
  proportion of bacteria as squatters, ramblers, flyers: a significantly larger proportion of cells exhibited rambling behavior and fewer were squatters

B2: lactoferrin (protein, UniProt P02788 20-710, looked up)
Lactotransferrin: GRRRSVQWCAVSQPEATKCFQWQRNMRKVRGPPVSCIKRDSPIQCIQAIAENRADAVTLDGGFIYEAGLAPYKLRPVAAEVYGTERQPRTHYYAVAVVKKGGSFQLNELQGLKSCHTGLRRTAGWNVPIGTLRPFLNWTGPPEPIEAAVARFFSASCVPGADKGQFPNLCRLCAGTGENKCAFSSQEPYFSYSGAFKCLRDGAGDVAFIRESTVFEDLSDEAERDEYELLCPDNTRKPVDKFKDCHLARVPSHAVVARSVNGKEDAIWNLLRQAQEKFGKDKSPKFQLFGSPSGQKDLLFKDSAIGFSRVPPRIDSGLYLGSGYFTAIQNLRKSEEEVAARRARVVWCAVGEQELRKCNQWSGLSEGSVTCSSASTTEDCIALVLKGEADAMSLDGGYVYTAGKCGLVPVLAENYKSQQSSDPDPNCVDRPVEGYLAVAVVRRSDTSLTWNSVKGKKSCHTAVDRTAGWNIPMGLLFNQTGSCKFDEYFSQSCAPGSDPRSNLCALCIGDEQGENKCVPNSNERYYGYTGAFRCLAENAGDVAFVKDVTVLQNTDGNNNEAWAKDLKLADFALLCLDGKRKPVTEARSCHLAMAPNHAVVSRMDKVERLKQVLLHQQAKFGRNGSDCPDKFCLFQSETKNLLFNDNTECLARLHGKTTYEKYLGPQYVAGITNLKKCSTSPLLEACEFLRK
modifications: iron-saturated
notes: lactoferrin in the iron-saturated state
[1]
  effect on biofilm formation, iron-saturated protein: did not prevent P. aeruginosa biofilm formation

B3: conalbumin (protein, UniProt P02789 20-705, looked up)
Ovotransferrin: APPKSVIRWCTISSPEEKKCNNLRDLTQQERISLTCVQKATYLDCIKAIANNEADAISLDGGQAFEAGLAPYKLKPIAAEVYEHTEGSTTSYYAVAVVKKGTEFTVNDLQGKTSCHTGLGRSAGWNIPIGTLLHRGAIEWEGIESGSVEQAVAKFFSASCVPGATIEQKLCRQCKGDPKTKCARNAPYSGYSGAFHCLKDGKGDVAFVKHTTVNENAPDQKDEYELLCLDGSRQPVDNYKTCNWARVAAHAVVARDDNKVEDIWSFLSKAQSDFGVDTKSDFHLFGPPGKKDPVLKDLLFKDSAIMLKRVPSLMDSQLYLGFEYYSAIQSMRKDQLTPSPRENRIQWCAVGKDEKSKCDRWSVVSNGDVECTVVDETKDCIIKIMKGEADAVALDGGLVYTAGVCGLVPVMAERYDDESQCSKTDERPASYFAVAVARKDSNVNWNNLKGKKSCHTAVGRTAGWVIPMGLIHNRTGTCNFDEYFSEGCAPGSPPNSRLCQLCQGSGGIPPEKCVASSHEKYFGYTGALRCLVEKGDVAFIQHSTVEENTGGKNKADWAKNLQMDDFELLCTDGRRANVMDYRECNLAEVPTHAVVVRPEKANKIRDLLERQEKRFGVNGSEKSKFMMFESQNKDLLFKDLTKCLFKVREGTTYKEFLGDKFYTVISSLKTCNPSDILQMCSFLEGK
notes: a lactoferrin-like chicken egg host defense protein; iron chelating protein, tested Fe-unsaturated and Fe-saturated
[1]
  effect on biofilm formation, iron-saturated protein: not when iron-saturated
  effect on biofilm development / formation: prevented biofilm formation in the iron-unsaturated state
P. aeruginosa biofilms; then H2O2 4 h
  effect of growth in conalbumin on biofilm resistance to H2O2: decreased resistance to both agents in a dose-dependent manner
P. aeruginosa biofilms; then tobramycin 4 h
  effect of growth in conalbumin on biofilm resistance to tobramycin: decreased resistance to both agents in a dose-dependent manner
